Measured values from patent publication EP4796129A1 (Celltrion, Inc., dated 2025).

T1: recombinant human Nectin-1 (human, UniProt Q15223 31-334, limits assumed)
T1 construct: Recombinant protein; construct not described
T1 sequence (looked up): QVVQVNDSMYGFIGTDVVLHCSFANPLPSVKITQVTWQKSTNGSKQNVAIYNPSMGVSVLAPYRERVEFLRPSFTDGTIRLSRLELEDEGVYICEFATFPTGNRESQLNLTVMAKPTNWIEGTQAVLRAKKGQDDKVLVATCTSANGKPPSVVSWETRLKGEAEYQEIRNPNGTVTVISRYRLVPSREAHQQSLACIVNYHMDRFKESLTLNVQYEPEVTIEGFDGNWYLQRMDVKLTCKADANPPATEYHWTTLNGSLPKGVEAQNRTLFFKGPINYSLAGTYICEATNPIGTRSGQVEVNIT

T2: recombinant human Nectin-2 (human, UniProt Q92692 32-360, limits assumed)
T2 construct: Recombinant protein; construct not described
T2 sequence (looked up): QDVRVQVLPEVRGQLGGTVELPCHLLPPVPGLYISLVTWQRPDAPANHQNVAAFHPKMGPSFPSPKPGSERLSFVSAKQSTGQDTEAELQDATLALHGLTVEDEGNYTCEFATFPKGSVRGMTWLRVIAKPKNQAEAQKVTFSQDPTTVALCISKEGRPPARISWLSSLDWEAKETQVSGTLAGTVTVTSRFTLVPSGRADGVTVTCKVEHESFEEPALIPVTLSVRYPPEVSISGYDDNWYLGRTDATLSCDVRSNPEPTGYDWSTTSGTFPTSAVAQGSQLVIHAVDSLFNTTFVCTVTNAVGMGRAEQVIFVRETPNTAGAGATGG

T3: recombinant cynomolgus monkey Nectin-4 protein (cynomolgus monkey, UniProt A0A2K5WES1 32-349)
T3 construct: Recombinant protein; construct not described; also called cynomolgus Nectin-4
T3 sequence: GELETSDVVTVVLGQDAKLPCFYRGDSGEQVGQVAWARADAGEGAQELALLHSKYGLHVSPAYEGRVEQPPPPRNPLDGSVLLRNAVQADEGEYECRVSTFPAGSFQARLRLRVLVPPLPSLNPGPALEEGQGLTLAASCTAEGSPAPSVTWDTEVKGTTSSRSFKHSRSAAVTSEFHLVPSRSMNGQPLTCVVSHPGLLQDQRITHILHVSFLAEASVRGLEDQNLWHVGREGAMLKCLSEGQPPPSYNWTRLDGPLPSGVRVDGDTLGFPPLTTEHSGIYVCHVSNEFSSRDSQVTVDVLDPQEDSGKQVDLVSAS

T4: recombinant human Nectin-4 protein (human, UniProt Q96NY8 32-349)
T4 construct: Recombinant protein; construct not described
T4 sequence (looked up): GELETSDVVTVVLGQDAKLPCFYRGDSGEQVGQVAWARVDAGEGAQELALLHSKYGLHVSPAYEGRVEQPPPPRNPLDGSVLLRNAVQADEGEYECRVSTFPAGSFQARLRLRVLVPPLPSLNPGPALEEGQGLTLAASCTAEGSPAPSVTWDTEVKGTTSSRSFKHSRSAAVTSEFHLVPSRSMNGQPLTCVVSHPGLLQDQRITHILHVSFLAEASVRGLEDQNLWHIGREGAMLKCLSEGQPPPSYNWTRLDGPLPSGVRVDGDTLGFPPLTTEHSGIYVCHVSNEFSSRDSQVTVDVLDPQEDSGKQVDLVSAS

T5: recombinant rat Nectin-4 protein (rat, UniProt D3ZET1 31-348)
T5 construct: Recombinant protein; construct not described
T5 sequence: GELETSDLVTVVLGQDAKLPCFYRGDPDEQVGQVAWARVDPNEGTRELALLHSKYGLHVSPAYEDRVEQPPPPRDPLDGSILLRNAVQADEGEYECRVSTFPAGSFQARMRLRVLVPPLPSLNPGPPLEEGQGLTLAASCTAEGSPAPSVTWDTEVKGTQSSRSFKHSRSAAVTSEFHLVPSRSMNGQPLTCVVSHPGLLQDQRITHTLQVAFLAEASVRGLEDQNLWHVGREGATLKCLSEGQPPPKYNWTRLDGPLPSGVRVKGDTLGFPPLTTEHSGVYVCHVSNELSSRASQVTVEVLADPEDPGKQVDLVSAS


Key:
[1] = target: T1, recombinant human Nectin-1; assay: ELISA
[2] = target: T2, recombinant human Nectin-2; assay: ELISA
[3] = target: T6, recombinant human Nectin-3 (human, UniProt Q9NQS3 58-404, limits assumed); assay: ELISA
T6 construct: Recombinant protein; construct not described

[4] = target: T3, recombinant cynomolgus monkey Nectin-4 …; assay: BLI, antibody as loading sample
[5] = target: T4, recombinant human Nectin-4 protein; assay: BLI, antibody as loading sample
[6] = target: T5, recombinant rat Nectin-4 protein; assay: BLI, antibody as loading sample
[7] = target: T3, recombinant cynomolgus monkey Nectin-4 …; assay: ELISA on recombinant protein
[8] = target: T4, recombinant human Nectin-4 protein; assay: ELISA on recombinant protein
[9] = target: T5, recombinant rat Nectin-4 protein; assay: ELISA on recombinant protein

T6 sequence (Q9NQS3 58-404 limits assumed): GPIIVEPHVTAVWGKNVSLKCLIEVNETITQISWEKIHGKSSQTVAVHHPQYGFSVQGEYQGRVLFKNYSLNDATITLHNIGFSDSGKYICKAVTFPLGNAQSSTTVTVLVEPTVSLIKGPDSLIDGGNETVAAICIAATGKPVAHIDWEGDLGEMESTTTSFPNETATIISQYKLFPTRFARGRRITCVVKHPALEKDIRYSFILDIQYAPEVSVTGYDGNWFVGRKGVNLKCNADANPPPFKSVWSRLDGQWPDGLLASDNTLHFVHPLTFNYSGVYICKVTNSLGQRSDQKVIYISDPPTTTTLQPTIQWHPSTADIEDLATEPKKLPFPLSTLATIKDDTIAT

binding result [1] | binding result [2] | binding result [3] | Kd [4] [nM] | Response [4] | Kd [5] [nM] | Response [5] | Kd [6] [nM] | Response [6] | EC50 [7] [ng/mL] | EC50 [8] [ng/mL] | EC50 [9] [ng/mL] | koff [4] [s⁻¹] | kon [4] [M⁻¹ s⁻¹] | koff [5] [s⁻¹] | kon [5] [M⁻¹ s⁻¹] | koff [6] [s⁻¹] | kon [6] [M⁻¹ s⁻¹] | Binder
no binding | no binding | no binding | 1.78 | 0.643 | 2.89 | 0.621 | 3.2 | 0.511 | 7.94 | 8.31 | 9.88 | – | – | – | – | – | – | Enfortumab-PBX-7016 ADC (antibody, V domains shown, mc-GGFG-PBX-7016 linker-payload on cysteine thiols freed by TCEP reduction of the disulfides; positions not given) VH: EVQLVESGGGLVQPGGSLRLSCAASGFTFSSYNMNWVRQAPGKGLEWVSYISSSSSTIYYADSVKGRFTISRDNAKNSLSLQMNSLRDEDTAVYYCARAYYYGMDVWGQGTTVTVSS VL: DIQMTQSPSSVSASVGDRVTITCRASQGISGWLAWYQQKPGKAPKFLIYAASTLQSGVPSRFSGSGSGTDFTLTISSLQPEDFATYYCQQANSFPPTFGGGTKVEIKR
no binding | no binding | no binding | 6.05 | 0.67 | 5.02 | 0.681 | 3.96 | 0.606 | 8.43 | 8.38 | 9.63 | 0.00191 | 316000 | 0.00136 | 271000 | 0.00149 | 376000 | Enfortumab mAb (antibody, human IgG1, kappa, V domains shown, Naked antibody (source: Abinvivo); also called anti-Nectin-4 antibody (Enfortumab); anti-Nectin4 mAb) VH: EVQLVESGGGLVQPGGSLRLSCAASGFTFSSYNMNWVRQAPGKGLEWVSYISSSSSTIYYADSVKGRFTISRDNAKNSLSLQMNSLRDEDTAVYYCARAYYYGMDVWGQGTTVTVSS VL: DIQMTQSPSSVSASVGDRVTITCRASQGISGWLAWYQQKPGKAPKFLIYAASTLQSGVPSRFSGSGSGTDFTLTISSLQPEDFATYYCQQANSFPPTFGGGTKVEIKR
